Laboratory results published in patent publication US20260200999A1, “SYNTHETIC TRANSCRIPTION FACTORS” (ETH ZURICH, priority 2022, published 2026).

B1: SEQ ID NO: 194: MTERF158-399 fused to three TA1 domains (protein)
chain: PGLPNGLLSGDEDFSSIADMDFSALLSQISSPGLPNGLLSGDEDFSSIADMDFSALLSQISSPGLPNGLLSGDEDFSSIADMDFSALLSQISS
B2: SEQ ID NO: 196: MTERF158-399 fused to two copies of the LMSTEN domain (protein)
chain: EAQNVSSHVPYPVALHVNIVNVPQPAAAAIQRHYNDEDPEKEKRIKELELLLMSTENELKGQQVLPTQNHTCSYPGWHSTEAQNVSSHVPYPVALHVNIVNVPQPAAAAIQRHYNDEDPEKEKRIKELELLLMSTENELKGQQVLPTQNHTCSYPGWHST
B3: SEQ ID NO: 54: MTERF158-399 fused to FoxoTAD with LMSTEN (protein)
chain: HEKFPSDLDLDMFNGSLECDMESIIRSELMDADGLDFNFDSEAQNVSSHVPYPVALHVNIVNVPQPAAAAIQRHYNDEDPEKEKRIKELELLLMSTENELKGQQVLPTQNHTCSYPGWHST
B4: SEQ ID NO: 56: MTERF158-399 fused to LMSTEN with TA1 (protein)
chain: EAQNVSSHVPYPVALHVNIVNVPQPAAAAIQRHYNDEDPEKEKRIKELELLLMSTENELKGQQVLPTQNHTCSYPGWHSTPGLPNGLLSGDEDFSSIADMDFSALLSQISS
B5: SEQ ID NO: 58: MTERF158-399 fused to FoxoTAD with TA1 (protein)
chain: HEKFPSDLDLDMFNGSLECDMESIIRSELMDADGLDFNFDSPGLPNGLLSGDEDFSSIADMDFSALLSQISS
B6: SEQ ID NO: 52: MTERF158-399 fused to chimeric TAD consisting of FoxoTAD, LMSTEN, and TA1 (protein)
chain: HEKFPSDLDLDMFNGSLECDMESIIRSELMDADGLDFNFDSEAQNVSSHVPYPVALHVNIVNVPQPAAAAIQRHYNDEDPEKEKRIKELELLLMSTENELKGQQVLPTQNHTCSYPGWHSTPGLPNGLLSGDEDFSSIADMDFSALLSQISS
B7: MTERF1104-399 with FoxoTAD: FoxoTAD: MTERF1104-399 (SEQ ID NO: 9) fused to FoxoTAD: FoxoTAD (SEQ ID NO: 33) (protein, listed as Homo sapiens)
chain: EQDLKMFLLSKGASKEVIASIISRYPRAITRTPENLSKRWDLWRKIVTSDLEIVNILERSPESFFRSNNNLNLENNIKFLYSVGLTRKCLCRLLTNAPRTFSNSLDLNKQMVEFLQAAGLSLGHNDPADFVRKIIFKNPFILIQSTKRVKANIEFLRSTFNLNSEELLVLICGPGAEILDLSNDYARRSYANIKEKLFSLGCTEEEVQKFVLSYPDVIFLAEKKFNDKIDCLMEENISISQIIENPRVLDSSISTLKSRIKELVNAGCNLSTLNITLLSWSKKRYEAKLKKLSRFAHEKFPSDLDLDMFNGSLECDMESIIRSELMDADGLDFNFDSHEKFPSDLDLDMFNGSLECDMESIIRSELMDADGLDFNFDS
B8: FRB::RelA430-551: FRBT2098L fused to RelA430-551 (protein)
chain: MVAILWHEMWHEGLEEASRLYFGERNVKGMFEVLEPLHAMMERGPQTLKETSFNQAYGRDLMEAQEWCRKYMKSGNVKDLLQAWDLYYHVFRRISQAGEGTLSEALLQLQFDDEDLGALLGNSTDPAVFTDLASVDNSEFQQLLNQGIPVAPHTTEPMLMEYPEAITRLVTGAQRPPDPAPAPLGAPGLPNGLLSGDEDFSSIADMDFSALLSQISS

Tests used:
[1] = test system: Response Element-driven mCerulean reporter (MTERF1 binding sites, SEQ ID NO: 42); test: mCerulean reporter co-transfection with HumTAP constructs in HEK293 cells (flow cytometry); type: cell-based, human; conditions: HEK293; for reporter (mCerulean) expression: TAD fused to MTERF158-399, pEF1a-driven, Example 4, FIG. 9B, C
Excerpt: To construct a promoter with Response Elements/MTERF1 binding sites driving the gene of interest, the inventors placed MTERF1 binding sites (SEQ ID NO: 42) upstream a minimal TATA box (SEQ ID NO: 103). An mCerulean fluorescent reporter representing the gene of interest (Gol) was placed downstream of the TATA box. Each of these is referred to as a reporter construct. Five different reporter constructs were made comprising respectively 3, 5, 7, 9, and 11 MTERF1 binding sites 6 base pairs apart upstream of the TATA box (FIG. 1A; SEQ ID NO: 41, 44, 45, 46 and 47, respectively). They were co-transfected with the MTF construct into Hela cells. […] Using flow cytometry, relative mCerulean levels were measured and calculated by normalization to the transfection control in Hela cells (FIG. 1C). […] Next, reporter plasmids with varying spacer lengths (0, 6 bp and 10 bp; SEQ ID NO: 48, 44 and 49, respectively) (FIG. 1F) between a fixed number of REs (i.e. 5 REs/MTERF1 binding sites) were transfected with the MTF construct. […] This was confirmed using flow cytometry (FIG. 1H). […]
With the goal to engineer stronger and possibly shorter HumTAPs, the inventors fused the MTERF158-399 peptide (SEQ ID NO: 1) to a variety of transactivation domains and transfected HEK293 cells with those constructs and the reporter construct comprising 5×RE/MTERF1 binding sites without a spacer between them (SEQ ID NO: 48).
First, MTERF158-399 (SEQ ID NO: 1) was fused with different subsequences of RelA. RelA361-551 (SEQ ID NO: 27) corresponds to the sequence used in the construction of the bacterial-derived synthetic TF PIT2 [19], while RelA342-551 (SEQ ID NO: 29) contains all annotated transactivation domains according to domain annotation under Uniprot Q04206 (https://www.uniprot.org/uniprotkb/Q04206/entry). […] We also fused MTERF158-399 (SEQ ID NO: 1) to a set of transactivation domains previously found to be strong activators with a small genetic footprint (FIG. 4B).
To further decrease the DNA footprint of a HumTAP, the inventors investigated to what degree the DNA binding domain may be reduced. To this end, the inventors created 3 versions of MTERF1 subsequences fused to RelA430-551 (SEQ ID NO: 3). MTERF173-399 (SEQ ID NO: 7), MTERF1104-399 (SEQ ID NO: 9), and MTERF1135-399 (SEQ ID NO: 11) are subunits of MTERF1 without its mitochondrial transfer peptide (MTERF11-57; SEQ ID NO: 37) that either lack only the first […] N-terminal amino acids (MTERF58-72; SEQ ID NO: 39) or additionally, also lack the first (MTERF173-98; SEQ ID NO: 104) or both the first and second (MTERF1104-134; SEQ ID NO: 106) mterf motifs (FIG. 5A). The removal of N-terminal domains reduces the genetic footprint of a HumTAP (FIG. 5B). These constructs were co-transfected into HEK293 cells with the reporter construct containing 5×RE without a spacer in its promoter (SEQ ID NO: 48).
In addition to RelA430-551 (termed “v1”), the inventors tested three alternative subsequences: v2) RelA342-551 (SEQ ID NO: 29), which contains all transactivation domains as annotated on UniProt Q04206; v3) RelA361-551 (SEQ ID NO: 27), which is identical to the peptide used in the construction of PIT2 [2]; and v4) RelA521-551 (SEQ ID NO: 31), which constitutes only the transactivation domain 1 (TA1). The protein domains WW (SEQ ID NO: 21), KRAB of ZNF473 (SEQ ID NO: 23), Nuc-rec-co-Act (SEQ ID NO: 25), LMSTEN (SEQ ID NO: 19), and FoxoTAD (SEQ ID NO: 17) were recently identified as strong transactivators. To assess their functionality in the HumTAP context, the inventors created fusion proteins between each of them and MTERF158-399 (SEQ ID NO: 1) (FIG. 9A).
Upon co-transfection of HEK293 cells with plasmids encoding pEF1a-driven expression of the fusion HumTAPs, a Response Element-driven mCerulean reporter protein, and a mCherry transfection control, all peptides derived from RelA except TA1 mediated high levels of reporter gene expression. […]

[2] = molecular target: T1, FKBP (SEQ ID NO: 142) and FRBT2098L (SEQ ID NO: 140) heterodimerization (Homo sapiens, UniProt P42345+P62942+Q04206, T2098L); test: A/C heterodimerizer-inducible HumTAP gene expression system in HEK293 cells; type: cell-based; conditions: HEK293; constant A/C heterodimerizer concentration of 100 nM; FIG. 10B
T1 construct: expressed in transfected cells; host or cells: HEK293
T1 sequence (P62942 with tags, fused parts or gaps, stated change not applied, one chain of several): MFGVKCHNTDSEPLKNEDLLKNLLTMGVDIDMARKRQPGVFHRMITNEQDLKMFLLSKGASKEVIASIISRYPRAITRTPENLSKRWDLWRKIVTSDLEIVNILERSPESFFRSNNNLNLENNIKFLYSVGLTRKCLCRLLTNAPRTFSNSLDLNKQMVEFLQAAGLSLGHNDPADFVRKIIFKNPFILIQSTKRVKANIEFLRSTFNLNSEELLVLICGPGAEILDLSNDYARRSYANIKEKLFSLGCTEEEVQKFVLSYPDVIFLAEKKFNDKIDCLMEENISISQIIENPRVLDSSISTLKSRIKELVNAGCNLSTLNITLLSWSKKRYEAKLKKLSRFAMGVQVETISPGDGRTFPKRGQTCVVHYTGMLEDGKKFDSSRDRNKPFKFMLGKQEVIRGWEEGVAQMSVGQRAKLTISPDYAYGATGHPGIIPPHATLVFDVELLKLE
Excerpt: One well-characterized small-molecule based dimerization system is based on the rapamycin analog A/C (C16-(S)-7-methylindolerapamycin) that induces heterodimerization between the human proteins FK506-binding protein 12 (FKBP; SEQ ID NO: 142) and the FKBP12-rapamycin binding domain (FRB) mutant FRBT2098L (SEQ ID NO: 140), [31]. To achieve A/C heterodimerizer-inducible gene expression, the inventors fused FKBP (SEQ ID NO: 142) to the N-terminus of MTERF158-399 (SEQ ID NO: 1) and FRB (SEQ ID NO: 140) to the C-terminus of different transactivation domains (FIG. 10A). […] In accordance with the results described above, chimeric transactivation domains mediated higher maximal output expression levels than RelA430-551.
The inventors reasoned that in the present system, dimerization might be hindered by either FRB's or FKBP's fusion partner and investigated whether the addition of linkers between the protein domains might impact the EC50 value (FIG. 10 D). A combination of the cMyc nuclear localization signal (NLS) (SEQ ID NO: 122) linking MTERF158-399 and FKBP, and the rigid linker AP6 (SEQ ID NO: 120) linking FRB and RelA430-551 led to a reduction in EC50 to ~60 nM while also increasing maximal output ~3-fold over the variant without linkers and RelA430-551 as TAD (FIG. 10 D).

Molecule	reporter (mCerulean) expression [1]	other results
B1	further increased output expression	
B2		mCerulean/reporter expression, fold more than one copy of the TAD ([1]; two copies of TAD fused to MTERF158-399, Example 4, FIG. 9C): ~ 2.7 fold
B3	smaller and stronger than the benchmark	
B4	smaller and stronger than the benchmark	
B5	smaller and stronger than the benchmark	
B6		reporter gene expression relative to RelA430-551 ([1]; fused to MTERF158-399, FIG. 9C): 3.7 times
B7		strength / reporter gene expression, fold over MTF ([1]; chimeric TAD fused to MTERF1104-399, FIG. 9F): ~ 1.5 fold
B8		molar excess over the MTERF158-399: FKBP plasmid giving the highest mCerulean levels [2]: 4 fold
